Experimental data taken from patent US20060211022A1.

Target: NGFR/EPOR hybrid receptor NECD (NGFR/EPOR chimera D) on 32D/NECDsc-14 cells (human; mouse)
Assay: cell-based or functional assay

NGFR/EPOR hybrid receptor NECD (NGFR/EPOR chimera D) on 32D/NECDsc-14 cells (human; mouse), sequence (chain, as listed by the source mutant limits assumed): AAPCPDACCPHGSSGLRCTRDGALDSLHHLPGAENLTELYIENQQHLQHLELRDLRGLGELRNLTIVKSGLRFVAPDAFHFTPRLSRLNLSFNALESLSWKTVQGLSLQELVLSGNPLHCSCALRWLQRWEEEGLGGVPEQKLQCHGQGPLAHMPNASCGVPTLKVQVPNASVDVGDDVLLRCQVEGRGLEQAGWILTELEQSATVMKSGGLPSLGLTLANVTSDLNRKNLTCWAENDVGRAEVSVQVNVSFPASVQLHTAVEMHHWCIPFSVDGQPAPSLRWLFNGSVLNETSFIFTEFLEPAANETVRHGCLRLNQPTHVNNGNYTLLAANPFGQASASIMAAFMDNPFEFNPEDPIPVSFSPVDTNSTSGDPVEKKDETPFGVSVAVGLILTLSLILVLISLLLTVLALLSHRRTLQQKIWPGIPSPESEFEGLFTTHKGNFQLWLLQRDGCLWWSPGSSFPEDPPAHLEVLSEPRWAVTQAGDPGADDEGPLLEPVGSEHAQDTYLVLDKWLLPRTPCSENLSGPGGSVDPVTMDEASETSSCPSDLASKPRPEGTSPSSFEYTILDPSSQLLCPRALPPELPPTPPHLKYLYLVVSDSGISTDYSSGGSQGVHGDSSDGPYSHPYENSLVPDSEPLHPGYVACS
NGF, sequence (P01138 122-241): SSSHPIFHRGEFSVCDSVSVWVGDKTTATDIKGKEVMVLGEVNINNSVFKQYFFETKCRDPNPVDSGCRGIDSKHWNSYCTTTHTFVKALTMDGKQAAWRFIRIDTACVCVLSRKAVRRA

NGF dose response in serum matrix, 0.02 ng/mL NGF, 1% human serum: 947
NGF dose response in serum matrix, 0.02 ng/mL NGF, 2% rat serum: 1190
NGF dose response in serum matrix, 0.02 ng/mL NGF, 5% cyno serum: 2180
NGF dose response in serum matrix, 0.02 ng/mL NGF, no serum: 595
NGF dose response in serum matrix, 0.07 ng/mL NGF, 1% human serum: 1480
NGF dose response in serum matrix, 0.07 ng/mL NGF, 2% rat serum: 3520
NGF dose response in serum matrix, 0.07 ng/mL NGF, 5% cyno serum: 5760
NGF dose response in serum matrix, 0.07 ng/mL NGF, no serum: 1390
NGF dose response in serum matrix, 0.21 ng/mL NGF, 1% human serum: 5830
NGF dose response in serum matrix, 0.21 ng/mL NGF, 2% rat serum: 12000
NGF dose response in serum matrix, 0.21 ng/mL NGF, 5% cyno serum: 15800
NGF dose response in serum matrix, 0.21 ng/mL NGF, no serum: 5420
NGF dose response in serum matrix, 0.62 ng/mL NGF, 1% human serum: 13400
NGF dose response in serum matrix, 0.62 ng/mL NGF, 2% rat serum: 29400
NGF dose response in serum matrix, 0.62 ng/mL NGF, 5% cyno serum: 32500
NGF dose response in serum matrix, 0.62 ng/mL NGF, no serum: 17100
NGF dose response in serum matrix, 1.85 ng/mL NGF, 1% human serum: 19500
NGF dose response in serum matrix, 1.85 ng/mL NGF, 2% rat serum: 37700
NGF dose response in serum matrix, 1.85 ng/mL NGF, 5% cyno serum: 43100
NGF dose response in serum matrix, 1.85 ng/mL NGF, no serum: 27400
NGF dose response in serum matrix, 5.56 ng/mL NGF, 1% human serum: 22200
NGF dose response in serum matrix, 5.56 ng/mL NGF, 2% rat serum: 43400
NGF dose response in serum matrix, 5.56 ng/mL NGF, 5% cyno serum: 52200
NGF dose response in serum matrix, 5.56 ng/mL NGF, no serum: 35200
NGF dose response in serum matrix, 16.67 ng/mL NGF, 1% human serum: 24600
NGF dose response in serum matrix, 16.67 ng/mL NGF, 2% rat serum: 42400
NGF dose response in serum matrix, 16.67 ng/mL NGF, 5% cyno serum: 51800
NGF dose response in serum matrix, 16.67 ng/mL NGF, no serum: 39700
NGF dose response in serum matrix, 50.00 ng/mL NGF, 1% human serum: 19700
NGF dose response in serum matrix, 50.00 ng/mL NGF, 2% rat serum: 46900
NGF dose response in serum matrix, 50.00 ng/mL NGF, 5% cyno serum: 56400
NGF dose response in serum matrix, 50.00 ng/mL NGF, no serum: 41000
NGF dose response in serum matrix, 150.00 ng/mL NGF, 1% human serum: 18600
NGF dose response in serum matrix, 150.00 ng/mL NGF, 2% rat serum: 49500
NGF dose response in serum matrix, 150.00 ng/mL NGF, 5% cyno serum: 62100
NGF dose response in serum matrix, 150.00 ng/mL NGF, no serum: 44100
[3H]-thymidine counts, NECDsc-14 NGF-dependent, 0.02 ng/ml: 1960 counts
[3H]-thymidine counts, NECDsc-14 NGF-dependent, 0.07 ng/ml: 4690 counts
[3H]-thymidine counts, NECDsc-14 NGF-dependent, 0.21 ng/ml: 8030 counts
[3H]-thymidine counts, NECDsc-14 NGF-dependent, 0.62 ng/ml: 16800 counts
[3H]-thymidine counts, NECDsc-14 NGF-dependent, 1.85 ng/ml: 22400 counts
[3H]-thymidine counts, NECDsc-14 NGF-dependent, 5.56 ng/ml: 24200 counts
[3H]-thymidine counts, NECDsc-14 NGF-dependent, 16.67 ng/ml: 22900 counts
[3H]-thymidine counts, NECDsc-14 NGF-dependent, 50.00 ng/ml: 21600 counts
[3H]-thymidine counts, NECDsc-14 NGF-dependent, 150.00 ng/ml: 20900 counts
Substance: NGF (ligand)
